Experimental data: patent publication US20220119490A1 (Genentech, published 2022)
Like-named read-outs stand apart in the source and are kept apart here.

Experiments:
Experiment in all cases: cell surface interaction assay: query ECD tetramerised with fluorescent streptavidin on transfected cells, immunofluorescence
PTPRS expressed on cells = target: T1, PTPRS expressed on cells (human, UniProt Q13332 30-1948)
T1 construct: whole, on cells; also called receptor-type tyrosine-protein phosphatase S

PTPRM expressed on cells [1] = target: T2, PTPRM expressed on cells (human, UniProt P28827 21-1452)
T2 construct: whole, on cells

PTPRG expressed on cells = target: T3, PTPRG expressed on cells (human, UniProt P23470 20-1445)
T3 construct: whole, on cells

PTPRO expressed on cells [2] = target: T4, PTPRO expressed on cells (human, UniProt Q16827 30-1216)
T4 construct: whole, on cells
T4 sequence (looked up): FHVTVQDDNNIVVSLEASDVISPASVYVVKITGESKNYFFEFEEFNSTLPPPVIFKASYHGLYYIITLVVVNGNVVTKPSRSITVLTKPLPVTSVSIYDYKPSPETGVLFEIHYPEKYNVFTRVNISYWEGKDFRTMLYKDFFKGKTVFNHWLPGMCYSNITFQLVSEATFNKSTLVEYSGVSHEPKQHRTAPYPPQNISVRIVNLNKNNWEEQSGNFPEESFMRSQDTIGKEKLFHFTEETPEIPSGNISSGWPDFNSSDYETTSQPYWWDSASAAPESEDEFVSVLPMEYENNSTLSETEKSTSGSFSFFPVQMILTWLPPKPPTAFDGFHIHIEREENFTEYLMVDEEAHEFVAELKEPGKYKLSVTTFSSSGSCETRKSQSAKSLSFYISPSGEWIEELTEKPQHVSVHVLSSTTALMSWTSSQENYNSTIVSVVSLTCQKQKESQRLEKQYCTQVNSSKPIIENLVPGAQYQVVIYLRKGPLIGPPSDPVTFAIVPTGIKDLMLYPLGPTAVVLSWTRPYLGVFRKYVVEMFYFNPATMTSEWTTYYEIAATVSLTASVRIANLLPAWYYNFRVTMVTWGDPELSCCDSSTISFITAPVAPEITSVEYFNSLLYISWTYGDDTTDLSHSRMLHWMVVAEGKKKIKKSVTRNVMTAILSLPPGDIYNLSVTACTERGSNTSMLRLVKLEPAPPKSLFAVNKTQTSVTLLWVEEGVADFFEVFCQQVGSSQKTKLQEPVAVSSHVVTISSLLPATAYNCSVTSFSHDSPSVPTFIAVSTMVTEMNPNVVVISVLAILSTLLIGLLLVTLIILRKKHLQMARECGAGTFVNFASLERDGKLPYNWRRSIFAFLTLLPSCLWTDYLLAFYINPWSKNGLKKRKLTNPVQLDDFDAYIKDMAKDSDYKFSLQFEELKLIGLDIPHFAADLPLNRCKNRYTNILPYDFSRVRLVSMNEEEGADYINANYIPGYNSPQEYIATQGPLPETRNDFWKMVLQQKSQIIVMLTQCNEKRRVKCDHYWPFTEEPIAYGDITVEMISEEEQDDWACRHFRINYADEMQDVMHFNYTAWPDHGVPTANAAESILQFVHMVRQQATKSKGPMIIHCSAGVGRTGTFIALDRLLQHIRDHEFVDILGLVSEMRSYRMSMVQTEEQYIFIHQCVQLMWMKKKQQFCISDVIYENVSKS

PTPRM expressed on cells [3] = target: T2, PTPRM expressed on cells; remark: listed apart in the source
From the text: (§1) FIG. 3H is a schematic showing the design of the cell surface interaction assay.
(§2) Experiments shown are representative of two independent assays. […] Scale bar=50 μm.

PTPRO expressed on cells [4] = target: T4, PTPRO expressed on cells; remark: listed apart in the source
From the text: as §1, §2

Measured: binding result

T2 sequence (P28827 21-1452): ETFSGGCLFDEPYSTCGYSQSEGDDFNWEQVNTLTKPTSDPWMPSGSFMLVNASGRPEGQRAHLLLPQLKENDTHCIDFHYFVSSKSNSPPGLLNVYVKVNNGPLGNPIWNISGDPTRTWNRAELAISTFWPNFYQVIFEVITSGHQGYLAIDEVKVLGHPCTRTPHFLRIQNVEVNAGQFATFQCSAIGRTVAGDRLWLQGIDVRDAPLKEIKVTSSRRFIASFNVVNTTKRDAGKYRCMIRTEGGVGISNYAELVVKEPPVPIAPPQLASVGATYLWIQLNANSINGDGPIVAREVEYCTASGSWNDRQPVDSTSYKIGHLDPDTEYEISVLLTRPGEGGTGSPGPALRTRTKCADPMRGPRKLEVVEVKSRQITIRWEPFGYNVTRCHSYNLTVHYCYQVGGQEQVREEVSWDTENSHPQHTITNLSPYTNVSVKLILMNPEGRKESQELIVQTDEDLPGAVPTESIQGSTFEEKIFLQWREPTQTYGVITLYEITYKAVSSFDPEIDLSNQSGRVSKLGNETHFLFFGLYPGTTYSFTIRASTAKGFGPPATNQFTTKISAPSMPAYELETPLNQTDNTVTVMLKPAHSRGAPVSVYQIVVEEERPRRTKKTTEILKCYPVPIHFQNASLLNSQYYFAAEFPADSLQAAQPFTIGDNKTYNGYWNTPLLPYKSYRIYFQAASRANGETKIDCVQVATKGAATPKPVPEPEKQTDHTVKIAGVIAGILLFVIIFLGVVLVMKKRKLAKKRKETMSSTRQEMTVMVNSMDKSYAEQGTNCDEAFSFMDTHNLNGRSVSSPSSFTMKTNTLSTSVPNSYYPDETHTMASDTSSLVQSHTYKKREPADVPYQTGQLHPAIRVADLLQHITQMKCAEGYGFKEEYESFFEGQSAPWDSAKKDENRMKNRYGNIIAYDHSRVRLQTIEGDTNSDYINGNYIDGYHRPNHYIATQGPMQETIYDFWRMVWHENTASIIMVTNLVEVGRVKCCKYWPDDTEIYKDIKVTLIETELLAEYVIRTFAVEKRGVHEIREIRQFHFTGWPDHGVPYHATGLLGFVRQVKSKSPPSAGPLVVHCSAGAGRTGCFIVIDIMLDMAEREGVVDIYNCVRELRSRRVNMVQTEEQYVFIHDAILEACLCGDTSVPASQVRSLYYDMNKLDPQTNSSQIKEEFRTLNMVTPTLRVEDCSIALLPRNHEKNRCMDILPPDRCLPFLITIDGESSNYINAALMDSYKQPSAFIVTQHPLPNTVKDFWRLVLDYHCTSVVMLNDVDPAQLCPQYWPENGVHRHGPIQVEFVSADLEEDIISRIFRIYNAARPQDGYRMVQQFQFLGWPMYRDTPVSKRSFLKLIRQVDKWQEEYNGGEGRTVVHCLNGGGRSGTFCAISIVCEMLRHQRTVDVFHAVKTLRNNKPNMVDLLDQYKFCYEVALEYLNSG
T1 sequence (Q13332 30-1948): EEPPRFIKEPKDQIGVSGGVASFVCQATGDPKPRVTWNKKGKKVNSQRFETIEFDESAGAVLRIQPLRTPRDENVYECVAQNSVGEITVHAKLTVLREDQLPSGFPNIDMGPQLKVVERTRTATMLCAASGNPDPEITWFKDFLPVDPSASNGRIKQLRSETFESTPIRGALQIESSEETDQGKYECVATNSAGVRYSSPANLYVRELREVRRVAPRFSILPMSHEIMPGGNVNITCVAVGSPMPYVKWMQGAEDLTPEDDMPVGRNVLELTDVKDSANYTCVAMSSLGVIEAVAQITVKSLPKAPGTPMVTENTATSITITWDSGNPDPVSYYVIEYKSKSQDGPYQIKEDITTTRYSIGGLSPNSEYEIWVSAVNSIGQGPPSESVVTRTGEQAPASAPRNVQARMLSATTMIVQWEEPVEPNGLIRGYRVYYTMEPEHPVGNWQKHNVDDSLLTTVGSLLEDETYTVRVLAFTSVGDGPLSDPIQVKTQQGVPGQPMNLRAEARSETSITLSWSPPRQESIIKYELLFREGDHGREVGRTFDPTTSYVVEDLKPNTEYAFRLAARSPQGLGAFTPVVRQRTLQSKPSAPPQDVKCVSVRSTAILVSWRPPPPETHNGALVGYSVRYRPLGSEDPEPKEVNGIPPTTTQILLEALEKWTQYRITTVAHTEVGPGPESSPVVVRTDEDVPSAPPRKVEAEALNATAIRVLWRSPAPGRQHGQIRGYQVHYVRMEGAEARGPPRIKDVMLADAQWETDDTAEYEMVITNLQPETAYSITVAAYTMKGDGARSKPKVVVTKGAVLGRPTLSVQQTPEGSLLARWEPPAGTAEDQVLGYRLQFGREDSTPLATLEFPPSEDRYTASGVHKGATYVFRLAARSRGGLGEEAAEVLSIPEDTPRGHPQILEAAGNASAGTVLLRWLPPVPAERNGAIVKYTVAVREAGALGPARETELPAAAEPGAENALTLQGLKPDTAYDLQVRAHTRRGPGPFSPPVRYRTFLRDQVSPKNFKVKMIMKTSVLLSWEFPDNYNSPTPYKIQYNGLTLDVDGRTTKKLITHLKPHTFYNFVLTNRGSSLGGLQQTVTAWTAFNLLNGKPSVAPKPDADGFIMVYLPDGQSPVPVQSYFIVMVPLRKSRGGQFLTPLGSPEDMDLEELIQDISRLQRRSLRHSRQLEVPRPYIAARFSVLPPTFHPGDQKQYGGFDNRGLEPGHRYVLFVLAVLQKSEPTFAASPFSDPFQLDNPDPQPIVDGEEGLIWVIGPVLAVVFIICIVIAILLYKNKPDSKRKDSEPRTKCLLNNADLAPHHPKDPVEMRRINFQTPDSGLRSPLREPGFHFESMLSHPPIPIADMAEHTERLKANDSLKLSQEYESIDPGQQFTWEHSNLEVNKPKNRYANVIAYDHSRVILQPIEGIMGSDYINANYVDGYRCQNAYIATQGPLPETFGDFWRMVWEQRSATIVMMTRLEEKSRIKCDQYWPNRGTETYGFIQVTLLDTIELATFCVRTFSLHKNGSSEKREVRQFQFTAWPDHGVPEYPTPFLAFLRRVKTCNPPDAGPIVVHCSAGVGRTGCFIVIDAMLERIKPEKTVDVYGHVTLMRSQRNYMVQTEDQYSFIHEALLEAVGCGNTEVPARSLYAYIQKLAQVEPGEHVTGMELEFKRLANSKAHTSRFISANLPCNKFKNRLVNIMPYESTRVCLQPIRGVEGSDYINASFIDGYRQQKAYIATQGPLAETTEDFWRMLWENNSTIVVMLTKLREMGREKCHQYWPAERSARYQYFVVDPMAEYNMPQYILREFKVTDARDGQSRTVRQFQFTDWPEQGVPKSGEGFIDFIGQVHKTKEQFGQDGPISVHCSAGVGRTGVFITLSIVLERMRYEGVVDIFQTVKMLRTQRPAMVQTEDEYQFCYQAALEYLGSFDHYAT
T3 sequence (P23470 20-1445): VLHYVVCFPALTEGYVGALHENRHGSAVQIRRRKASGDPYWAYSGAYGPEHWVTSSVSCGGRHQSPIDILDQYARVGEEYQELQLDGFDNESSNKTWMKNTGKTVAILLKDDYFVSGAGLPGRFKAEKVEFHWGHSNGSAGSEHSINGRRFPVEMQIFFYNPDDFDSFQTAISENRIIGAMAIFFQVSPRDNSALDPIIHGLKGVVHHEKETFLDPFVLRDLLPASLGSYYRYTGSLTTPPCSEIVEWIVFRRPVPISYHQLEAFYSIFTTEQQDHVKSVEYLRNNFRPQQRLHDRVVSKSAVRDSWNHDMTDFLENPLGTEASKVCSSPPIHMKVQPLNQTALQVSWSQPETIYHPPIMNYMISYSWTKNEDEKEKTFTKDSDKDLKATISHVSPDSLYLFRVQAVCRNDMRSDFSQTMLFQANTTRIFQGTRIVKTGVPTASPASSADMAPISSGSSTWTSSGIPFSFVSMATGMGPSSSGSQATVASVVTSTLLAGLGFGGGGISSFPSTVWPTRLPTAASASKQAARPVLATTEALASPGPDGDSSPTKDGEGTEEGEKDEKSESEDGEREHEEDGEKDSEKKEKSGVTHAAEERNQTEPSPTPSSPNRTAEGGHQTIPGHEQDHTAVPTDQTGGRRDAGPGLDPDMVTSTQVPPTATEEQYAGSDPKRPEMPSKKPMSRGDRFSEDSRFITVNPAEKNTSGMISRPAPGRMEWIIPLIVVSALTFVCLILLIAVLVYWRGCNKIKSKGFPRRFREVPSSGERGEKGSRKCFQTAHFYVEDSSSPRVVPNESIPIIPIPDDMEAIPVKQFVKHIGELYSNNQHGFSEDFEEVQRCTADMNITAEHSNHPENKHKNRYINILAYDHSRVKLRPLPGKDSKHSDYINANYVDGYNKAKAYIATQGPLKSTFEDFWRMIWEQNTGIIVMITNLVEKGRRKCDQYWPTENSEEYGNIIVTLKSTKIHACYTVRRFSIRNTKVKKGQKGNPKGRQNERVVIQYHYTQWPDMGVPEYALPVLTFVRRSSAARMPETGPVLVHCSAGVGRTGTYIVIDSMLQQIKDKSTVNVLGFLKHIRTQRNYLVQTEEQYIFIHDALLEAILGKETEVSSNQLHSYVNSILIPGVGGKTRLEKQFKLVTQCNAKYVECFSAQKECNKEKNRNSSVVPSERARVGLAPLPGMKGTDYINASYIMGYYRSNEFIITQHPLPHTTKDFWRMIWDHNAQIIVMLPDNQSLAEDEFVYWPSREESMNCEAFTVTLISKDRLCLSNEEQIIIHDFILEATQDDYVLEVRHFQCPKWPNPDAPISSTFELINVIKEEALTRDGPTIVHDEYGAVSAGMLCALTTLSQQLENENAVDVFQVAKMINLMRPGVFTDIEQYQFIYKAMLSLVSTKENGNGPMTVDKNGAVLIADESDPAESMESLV

B1: CNTN1 extracellular domain (receptor, human, UniProt Q12860 21-993, looked up)
chain: EFTWYRRYGHGVSEEDKGFGPIFEEQPINTIYPEESLEGKVSLNCRARASPFPVYKWRMNNGDVDLTSDRYSMVGGNLVINNPDKQKDAGIYYCLASNNYGMVRSTEATLSFGYLDPFPPEERPEVRVKEGKGMVLLCDPPYHFPDDLSYRWLLNEFPVFITMDKRRFVSQTNGNLYIANVEASDKGNYSCFVSSPSITKSVFSKFIPLIPIPERTTKPYPADIVVQFKDVYALMGQNVTLECFALGNPVPDIRWRKVLEPMPSTAEISTSGAVLKIFNIQLEDEGIYECEAENIRGKDKHQARIYVQAFPEWVEHINDTEVDIGSDLYWPCVATGKPIPTIRWLKNGYAYHKGELRLYDVTFENAGMYQCIAENTYGAIYANAELKILALAPTFEMNPMKKKILAAKGGRVIIECKPKAAPKPKFSWSKGTEWLVNSSRILIWEDGSLEINNITRNDGGIYTCFAENNRGKANSTGTLVITDPTRIILAPINADITVGENATMQCAASFDPALDLTFVWSFNGYVIDFNKENIHYQRNFMLDSNGELLIRNAQLKHAGRYTCTAQTIVDNSSASADLVVRGPPGPPGGLRIEDIRATSVALTWSRGSDNHSPISKYTIQTKTILSDDWKDAKTDPPIIEGNMEAARAVDLIPWMEYEFRVVATNTLGRGEPSIPSNRIKTDGAAPNVAPSDVGGGGGRNRELTITWAPLSREYHYGNNFGYIVAFKPFDGEEWKKVTVTNPDTGRYVHKDETMSPSTAFQVKVKAFNNKGDGPYSLVAVINSAQDAPSEAPTEVGVKVLSSSEISVHWEHVLEKIVESYQIRYWAAHDKEEAANRVQVTSQEYSARLENLLPDTQYFIEVGACNSAGCGPPSDMIEAFTKKAPPSQPPRIISSVRSGSRYIITWDHVVALSNESTVTGYKVLYRPDGQHDGKLYSTHKHSIEVPIPRDGEYVVEVRAHSDGGDGVVSQVKIS
notes: extracellular domain; Streptavidin tetramer in cell assays; ECD-Fc in SPR; also called contactin 1
no binding: PTPRS expressed on cells | PTPRM expressed on cells [1] | PTPRG expressed on cells | PTPRO expressed on cells [2]

B2: LRFN5 extracellular domain (receptor, human, UniProt Q96NI6 18-529, looked up)
chain: QICPKRCVCQILSPNLATLCAKKGLLFVPPNIDRRTVELRLADNFVTNIKRKDFANMTSLVDLTLSRNTISFITPHAFADLRNLRALHLNSNRLTKITNDMFSGLSNLHHLILNNNQLTLISSTAFDDVFALEELDLSYNNLETIPWDAVEKMVSLHTLSLDHNMIDNIPKGTFSHLHKMTRLDVTSNKLQKLPPDPLFQRAQVLATSGIISPSTFALSFGGNPLHCNCELLWLRRLSREDDLETCASPPLLTGRYFWSIPEEEFLCEPPLITRHTHEMRVLEGQRATLRCKARGDPEPAIHWISPEGKLISNATRSLVYDNGTLDILITTVKDTGAFTCIASNPAGEATQIVDLHIIKLPHLLNSTNHIHEPDPGSSDISTSTKSGSNTSSSNGDTKLSQDKIVVAEATSSTALLKFNFQRNIPGIRMFQIQYNGTYDDTLVYRMIPPTSKTFLVNNLAAGTMYDLCVLAIYDDGITSLTATRVVGCIQFTTEQDYVRCHFMQSQFLGGTM
notes: extracellular domain; Streptavidin tetramer in cell assay; ECD-Fc prey in the variant screen; also called LFRN5
no binding: PTPRM expressed on cells [3] | PTPRO expressed on cells [4]
